From patent publication US20050118170A1 come the findings set out here.

Assay [1] deals with human collagen type I (human) (UniProt P02452). Nature of the assay: adherence of cells to collagen-coated plates, 30 minutes at 37° C.; not inhibited by anti-β1 integrin blocking antibody.
Assay [2] addresses DDR1b (discoidin domain receptor 1, isoform b), full-length human, overexpressed in THP-1 cells (human) (UniProt Q08345). The experiment in a line: cell-based or functional assay.

DDR1b (discoidin domain receptor 1, isoform b), full-length human, overexpressed in THP-1 cells (human), sequence (Q08345 19-913, form in doubt): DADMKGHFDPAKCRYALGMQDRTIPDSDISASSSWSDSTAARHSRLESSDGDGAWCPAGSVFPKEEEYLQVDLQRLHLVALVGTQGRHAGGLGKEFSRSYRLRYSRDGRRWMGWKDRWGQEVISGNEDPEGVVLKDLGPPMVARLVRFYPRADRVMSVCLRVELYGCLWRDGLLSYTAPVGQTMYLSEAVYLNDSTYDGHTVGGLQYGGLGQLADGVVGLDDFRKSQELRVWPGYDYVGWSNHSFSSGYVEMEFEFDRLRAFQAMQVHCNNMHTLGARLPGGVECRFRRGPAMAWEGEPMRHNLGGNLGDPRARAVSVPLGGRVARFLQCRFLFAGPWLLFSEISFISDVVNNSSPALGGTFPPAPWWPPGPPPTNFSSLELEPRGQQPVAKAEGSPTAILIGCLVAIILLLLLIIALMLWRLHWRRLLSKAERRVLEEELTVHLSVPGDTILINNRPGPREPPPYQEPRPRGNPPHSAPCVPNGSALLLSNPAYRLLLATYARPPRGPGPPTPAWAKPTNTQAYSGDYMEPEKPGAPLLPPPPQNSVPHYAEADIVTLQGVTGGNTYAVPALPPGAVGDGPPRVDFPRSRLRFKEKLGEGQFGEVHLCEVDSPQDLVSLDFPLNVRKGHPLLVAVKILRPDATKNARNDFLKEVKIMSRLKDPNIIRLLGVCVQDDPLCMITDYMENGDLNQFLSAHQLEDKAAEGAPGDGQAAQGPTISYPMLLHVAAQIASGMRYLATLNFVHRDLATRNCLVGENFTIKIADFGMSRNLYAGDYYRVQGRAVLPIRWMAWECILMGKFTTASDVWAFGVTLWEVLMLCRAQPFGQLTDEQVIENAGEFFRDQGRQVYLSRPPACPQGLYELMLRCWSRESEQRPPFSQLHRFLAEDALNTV
human collagen type I (human), sequence (P02452 162-1218 limits assumed, chain 1 of 2): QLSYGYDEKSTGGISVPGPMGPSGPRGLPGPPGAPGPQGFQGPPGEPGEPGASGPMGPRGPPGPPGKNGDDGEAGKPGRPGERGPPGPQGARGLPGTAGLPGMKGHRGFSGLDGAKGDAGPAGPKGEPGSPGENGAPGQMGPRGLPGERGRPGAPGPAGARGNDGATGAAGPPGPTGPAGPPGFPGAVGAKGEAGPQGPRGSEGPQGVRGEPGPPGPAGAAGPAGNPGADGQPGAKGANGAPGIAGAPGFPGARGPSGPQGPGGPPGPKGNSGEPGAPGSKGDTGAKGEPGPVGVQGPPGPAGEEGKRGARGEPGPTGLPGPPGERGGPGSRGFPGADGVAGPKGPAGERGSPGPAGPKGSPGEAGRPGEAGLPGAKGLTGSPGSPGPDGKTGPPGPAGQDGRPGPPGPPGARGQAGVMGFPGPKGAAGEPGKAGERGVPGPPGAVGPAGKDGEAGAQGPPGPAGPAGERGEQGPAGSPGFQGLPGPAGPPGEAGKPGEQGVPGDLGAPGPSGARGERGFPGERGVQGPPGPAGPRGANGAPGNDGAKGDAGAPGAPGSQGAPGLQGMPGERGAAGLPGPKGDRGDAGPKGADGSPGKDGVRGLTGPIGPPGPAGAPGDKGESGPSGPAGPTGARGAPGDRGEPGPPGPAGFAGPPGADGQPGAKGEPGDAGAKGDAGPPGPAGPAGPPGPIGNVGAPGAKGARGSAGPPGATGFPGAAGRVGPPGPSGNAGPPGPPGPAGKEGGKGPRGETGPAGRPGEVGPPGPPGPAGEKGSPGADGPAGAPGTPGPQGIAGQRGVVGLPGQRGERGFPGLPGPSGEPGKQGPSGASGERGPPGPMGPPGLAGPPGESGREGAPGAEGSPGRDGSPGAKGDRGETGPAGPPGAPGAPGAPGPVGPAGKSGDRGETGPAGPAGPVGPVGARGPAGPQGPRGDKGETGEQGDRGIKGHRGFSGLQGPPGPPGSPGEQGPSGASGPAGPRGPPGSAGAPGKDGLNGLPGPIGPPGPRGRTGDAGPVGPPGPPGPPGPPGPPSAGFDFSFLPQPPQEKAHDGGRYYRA
human collagen type I (human), sequence (P08123 80-1119 limits assumed, chain 2 of 2, further chain): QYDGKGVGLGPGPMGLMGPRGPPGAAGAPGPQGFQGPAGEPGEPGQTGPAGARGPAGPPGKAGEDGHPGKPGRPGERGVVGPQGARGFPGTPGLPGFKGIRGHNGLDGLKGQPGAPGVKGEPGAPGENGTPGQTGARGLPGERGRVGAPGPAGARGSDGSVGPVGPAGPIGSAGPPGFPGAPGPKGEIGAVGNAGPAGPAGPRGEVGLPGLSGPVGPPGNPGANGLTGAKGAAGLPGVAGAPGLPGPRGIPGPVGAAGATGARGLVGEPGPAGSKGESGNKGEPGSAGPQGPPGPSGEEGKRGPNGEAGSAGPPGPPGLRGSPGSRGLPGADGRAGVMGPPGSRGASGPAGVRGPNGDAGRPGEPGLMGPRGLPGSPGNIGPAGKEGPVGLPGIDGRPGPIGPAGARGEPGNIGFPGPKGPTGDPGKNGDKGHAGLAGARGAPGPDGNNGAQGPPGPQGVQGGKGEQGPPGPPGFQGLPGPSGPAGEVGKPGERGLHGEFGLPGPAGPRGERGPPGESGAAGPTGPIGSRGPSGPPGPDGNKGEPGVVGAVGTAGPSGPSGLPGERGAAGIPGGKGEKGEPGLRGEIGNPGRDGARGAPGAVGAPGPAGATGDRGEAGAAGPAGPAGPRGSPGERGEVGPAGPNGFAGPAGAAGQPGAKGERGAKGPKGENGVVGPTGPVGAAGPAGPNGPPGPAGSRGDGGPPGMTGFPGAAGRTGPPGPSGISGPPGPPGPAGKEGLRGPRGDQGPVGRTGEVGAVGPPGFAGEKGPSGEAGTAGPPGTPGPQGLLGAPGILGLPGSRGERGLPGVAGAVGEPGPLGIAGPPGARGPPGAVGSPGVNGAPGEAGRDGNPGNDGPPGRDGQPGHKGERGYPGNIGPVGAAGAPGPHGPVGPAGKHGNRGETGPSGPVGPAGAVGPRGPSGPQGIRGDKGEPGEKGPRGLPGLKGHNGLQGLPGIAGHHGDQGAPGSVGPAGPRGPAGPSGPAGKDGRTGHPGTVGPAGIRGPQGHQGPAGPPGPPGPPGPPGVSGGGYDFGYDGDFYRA
DDR1b (discoidin domain receptor 1, isoform b), full-length human, overexpressed in THP-1 cells, sequence (Q08345 19-913): as the sequence (Q08345 19-913, form in doubt) above

“DDR1a (discoidin domain receptor 1, isoform a), full-length human, overexpressed in THP-1 cells (from UniProt Q08345 19-913)” had a percent of total cells adherent (% of total cells) in assay [1] of 62.
On the same count and under the same terms, next, “DDR1b (discoidin domain receptor 1, isoform b), full-length human, overexpressed in THP-1 cells (from UniProt Q08345 19-913)”: 62.
“bovine collagen type I (from UniProt P02453 162-1217; P02465 80-1117)” returned a decrease in cell proliferation of PMA-treated THP-1 cells on collagen-coated plates in assay [2] of 50%.
With “bovine collagen type I (from UniProt P02453 162-1217; P02465 80-1117) (ligand)”, in assay [2], the CD11c-positive cells at 24 hours on collagen-coated plates stood at 53%; the CD14-positive cells at 24 hours on collagen-coated plates amounted to 35%; the CD40-positive cells at 24 hours on collagen-coated plates is 19%; the HLA-DR-positive cells, 12 hours on collagen-coated plates was 10%. In assay [2], this substance returned an HLA-DR-positive cells, 24 hour incubation on collagen-coated plates of 25%; an HLA-DR-positive cells, 48 hour incubation on collagen-coated plates of 70%; an MCP-1 release into culture supernatant (ELISA) of 7 fold.
